Like-named read-outs stand apart in the source and are kept apart here.

To fix the notation:
B5: human IL-12p40, the p40 subunit of IL-23 (natural protein, UniProt P29460 23-328, looked up)
chain: IWELKKDVYVVELDWYPDAPGEMVVLTCDTPEEDGITWTLDQSSEVLGSGKTLTIQVKEFGDAGQYTCHKGGEVLSHSLLLLHKKEDGIWSTDILKDQKEPKNKTFLRCEAKNYSGRFTCWWLTTISTDLTFSVKSSRGSSDPQGVTCGAATLSAERVRGDNKEYEYSVECQEDSACPAAEESLPIEVMVDAVHKLKYENYTSSFFIRDIIKPDPPKNLQLKPLKNSRQVEVSWEYPDTWSTPHSYFSLTFCVQVQGKSKREKKDRVFTDKTSATVICRKNASISVRAQDRYYSSSWSEWASVPCS

The target of test [1] is T1, human interleukin-23 (IL-23), heterodimer of IL-23p19 and IL-12p40 (human, UniProt Q9NPF7;P29460). The test can be described thus: cross-linking.
Test [2] deals with T2, human IL-12 receptor subunit beta-1 ectodomain (IL-12Rβ1, full ECD) (human, UniProt P42701-1 24-544). The test can be described thus: ITC. (Isothermal titration calorimetry measures the heat released or taken up as one component is titrated into another.)
For test [3], the target named is T3, human IL-23 receptor ectodomain (IL-23R, full ECD, residues 1-317) (human, UniProt Q5VWK5-1 24-317).
T3 sequence (looked up): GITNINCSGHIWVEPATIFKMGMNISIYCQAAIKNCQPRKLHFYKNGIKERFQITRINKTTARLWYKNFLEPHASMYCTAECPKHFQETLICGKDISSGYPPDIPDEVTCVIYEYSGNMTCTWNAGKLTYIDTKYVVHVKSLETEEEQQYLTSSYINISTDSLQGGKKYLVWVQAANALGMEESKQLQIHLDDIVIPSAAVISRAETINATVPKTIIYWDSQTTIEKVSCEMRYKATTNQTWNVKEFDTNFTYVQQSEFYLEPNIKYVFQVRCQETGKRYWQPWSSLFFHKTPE
Put plainly: SEC-MALLS.

The target in test [4] is T3, human IL-23 receptor ectodomain …. The test can be described thus: crystal structure.
The target of test [5] is B5. Put plainly: crystal structure.
The target in test [6] is T2, human IL-12 receptor subunit beta-1 …. Put plainly: cross-linking.
Test [7] deals with T4, human IL-12p40, the p40 subunit of IL-23 (human, UniProt P29460). The test can be described thus: crystal structure.
Test [8] has as its target T1, human interleukin-23 (IL-23), …. The test can be described thus: crystal structure.
In test [9] the target is T4, human IL-12p40, the p40 subunit of IL-23. The test can be described thus: crystal structure. The source holds these as a separate data set.
Test [10] concerns the target T1, human interleukin-23 (IL-23), …. The test can be described thus: crystal structure. This is another data set of the same source.

B1: Nanobody 124C4 (single domain VHH camelid antibody against human IL-23) (VHH)
VHH: EVQLVESGGGLVQPGGSLRLSCAASGFTLDDYAIAWFRQAPGKEREGVSGIDSGDGSAYYADSVKGRFTISSDNAKNTVYLQMNSLRPEDTAVYYCARVRTGWGLNAPDYAMDYWGKGTLVTVSS
Regarding B1, the binding result in test [1] is recorded as “binds”.

B2: human interleukin-23 (IL-23), heterodimer of IL-23p19 and IL-12p40 (complex)
chain 1: RAVPGGSSPAWTQCQQLSQKLCTLAWSAHPLVGHMDLREEGDEETTNDVPHIQCGDGCDPQGLRDNSQFCLQRIHQGLIFYEKLLGSDIFTGEPSLLPDSPVGQLHASLLGLSQLLQPEGHHWETQQIPSLSPSQPWQRLLLRFKILRSLQAFVAVAARVFAHGAATLSP
chain 2: IWELKKDVYVVELDWYPDAPGEMVVLTCDTPEEDGITWTLDQSSEVLGSGKTLTIQVKEFGDAGQYTCHKGGEVLSHSLLLLHKKEDGIWSTDILKDQKEPKNKTFLRCEAKNYSGRFTCWWLTTISTDLTFSVKSSRGSSDPQGVTCGAATLSAERVRGDNKEYEYSVECQEDSACPAAEESLPIEVMVDAVHKLKYENYTSSFFIRDIIKPDPPKNLQLKPLKNSRQVEVSWEYPDTWSTPHSYFSLTFCVQVQGKSKREKKDRVFTDKTSATVICRKNASISVRAQDRYYSSSWSEWASVPCS
Regarding B2, the Kd (commonly the constant that tells how readily two partners part at equilibrium) in [2] came to 2000 nM. Besides, the stoichiometry N (commonly a count of units in the complex or per binding partner) in test [3] was determined as 1.

B3: human IL-23p19, the helical subunit of IL-23 (natural protein, UniProt Q9NPF7 20-189, looked up)
chain: RAVPGGSSPAWTQCQQLSQKLCTLAWSAHPLVGHMDLREEGDEETTNDVPHIQCGDGCDPQGLRDNSQFCLQRIHQGLIFYEKLLGSDIFTGEPSLLPDSPVGQLHASLLGLSQLLQPEGHHWETQQIPSLSPSQPWQRLLLRFKILRSLQAFVAVAARVFAHGAATLSP
As for B3, the binding result in test [4] and in test [5] was “binds” each time.

B4: preformed human IL-23:IL-23R binary complex (complex)
chain 1: RAVPGGSSPAWTQCQQLSQKLCTLAWSAHPLVGHMDLREEGDEETTNDVPHIQCGDGCDPQGLRDNSQFCLQRIHQGLIFYEKLLGSDIFTGEPSLLPDSPVGQLHASLLGLSQLLQPEGHHWETQQIPSLSPSQPWQRLLLRFKILRSLQAFVAVAARVFAHGAATLSP
chain 2: IWELKKDVYVVELDWYPDAPGEMVVLTCDTPEEDGITWTLDQSSEVLGSGKTLTIQVKEFGDAGQYTCHKGGEVLSHSLLLLHKKEDGIWSTDILKDQKEPKNKTFLRCEAKNYSGRFTCWWLTTISTDLTFSVKSSRGSSDPQGVTCGAATLSAERVRGDNKEYEYSVECQEDSACPAAEESLPIEVMVDAVHKLKYENYTSSFFIRDIIKPDPPKNLQLKPLKNSRQVEVSWEYPDTWSTPHSYFSLTFCVQVQGKSKREKKDRVFTDKTSATVICRKNASISVRAQDRYYSSSWSEWASVPCS
chain 3: GITNINCSGHIWVEPATIFKMGMNISIYCQAAIKNCQPRKLHFYKNGIKERFQITRINKTTARLWYKNFLEPHASMYCTAECPKHFQETLICGKDISSGYPPDIPDEVTCVIYEYSGNMTCTWNAGKLTYIDTKYVVHVKSLETEEEQQYLTSSYINISTDSLQGGKKYLVWVQAANALGMEESKQLQIHLDDIVIPSAAVISRAETINATVPKTIIYWDSQTTIEKVSCEMRYKATTNQTWNVKEFDTNFTYVQQSEFYLEPNIKYVFQVRCQETGKRYWQPWSSLFFHKTPE
As for B4, binding in test [2] was characterised by a dissociation constant (Kd) of 25 nM.
Take B5: in test [6], the binding result is recorded as “binds”.

B6: Nanobody 37D5 (single domain VHH camelid antibody against human IL-23) (VHH)
VHH: EVQLVESGGGLVQPGGSLRLSCAASGFTLDYLAIGWFRQAPGKEREGVSCVSSSGQYTYYADSVKGRFTISRDNAESTVYLQMNSLKPEDTAVYYCATDPECYRVRGYYNGEYDYWGQGTQVTVSS
For B6, the binding result in [1] is given as “binds”.

B7: Fab fragment of briakinumab (ABT-874) (Fab, V domains shown)
VH: QVQLVESGGGVVQPGRSLRLSCAASGFTFSSYGMHWVRQAPGKGLEWVAFIRYDGSNKYYADSVKGRFTISRDNSKNTLYLQMNSLRAEDTAVYYCKTHGSHDNWGQGTMVTVSS
VL: QSVLTQPPSVSGAPGQRVTISCSGSRSNIGSNTVKWYQQLPGTAPKLLIYYNDQRPSGVPDRFSGSKSGTSASLAITGLQAEDEADYYCQSYDRYTHPALLFGTGTKVTVL
Turning to B7, the binding result in [7] and in test [8] was “binds” each time.

B8: Fab fragment of ustekinumab (Fab, V domains shown)
VH: EVQLVQSGAEVKKPGESLKISCKGSGYSFTTYWLGWVRQMPGKGLDWIGIMSPVDSDIRYSPSFQGQVTMSVDKSITTAYLQWNSLKASDTAMYYCARRRPGQGYFDFWGQGTLVTVSS
VL: DIQMTQSPSSLSASVGDRVTITCRASQGISSWLAWYQQKPEKAPKSLIYAASSLQSGVPSRFSGSGSGTDFTLTISSLQPEDFATYYCQQYNIYPYTFGQGTKLEIK
Take B8: in test [1], the binding result was “binds”.

B9: Nanobody 22E11 (single domain VHH camelid antibody against human IL-23) (VHH)
VHH: EVQLVESGGGLVQAGGSLRLSCAASGRTFSWSAVGWFRQAPGKEREFVAAIRWSGGSPYYADSVKDRFTISRDNAKNTVYLQMNSLRPEDTAVYLCGETSLFPTSRGSHYDTWGQGTQVTVSS
As to B9, the binding result in test [9] and in [10] was “binds” throughout.

The record behind these values is publication PMC5773378 (Immunity, 2017).
